According to publication PMC4411560:

Key:
[1] = target: 30S IC_(−1/3): canonical 30S initiation complex lacking IF1 and IF3 (E. coli (strain MRE600)); assay: FRET or BRET
[2] = target: 30S IC_(−1/3,Met): pseudo 30S initiation complex lacking IF1 and IF3 carrying Met-tRNA^fMet (E. coli (strain MRE600)); assay: FRET or BRET

Kd [1]: 0.05 µM
kon [1]: 1.3e+07 M⁻¹ s⁻¹
koff [2]: 1.3 s⁻¹
kon [2]: 19000 M⁻¹ s⁻¹
Substance: IF2(Cy5): Cy5-labeled E. coli initiation factor 2, γ-isoform, G810C (natural protein)
